# Measurements published in patent US20220031840A1, “Method of Treatment” (HaemaLogix Pty Ltd, priority 2018, published 2022).
# How the values were obtained:
# Type in all cases: in vivo, human
# G-CSF = experiment: Biomarker analysis: serum G-CSF; settings: adjusted for cytokine baseline differences
# Description: (§1) Patient serum samples for biomarker analysis were collected approximately 30 minutes before infusion of kappamab and then at 6, 48, 192, and 1,080 hours after infusion for all patients. Samples were analysed in triplicate and serum levels of 48 human cytokines, chemokines, and growth factors were measured using the Bio-Plex Pro™ Human Cytokine 27-plex and 21-plex assays according to the manufacturer's recommendations (Bio-Rad, Carlsbad, Calif., USA; Cat No M10-0KCAF0Y, mg0-005KMII). Results were verified by repeating the 21-plex assay in triplicate and the samples were randomized across the assay plate. Pre-infusion samples were used as the baseline (t=0) for the analysis.
# (§2) Multivariate analysis of the biomarker data was performed using R version 3.1.0 (2014-04-10) software (http://www.R-project.org/). Linear mixed effects modelling was completed using 1me4 (Bates et al. 2015). […]
# (§3) To find significance between kappamab dose, time, and cytokine expression levels, we fitted a linear mixed-effects model that modelled cytokine fluorescence expression levels with fixed-effects terms for baseline cytokine fluorescence expression, kappamab dose (with 4 levels: 0.3, 1.0, 3.0, and 10 mg/kg), time (treated as factor with 5 levels), and cytokine with 48 levels, plus their interactions, with a random effect associated with patient (12 levels) and plex (2 levels). […]
# [1] = tested on: macrophage inhibitory factor (MIF); experiment: Biomarker analysis: serum MIF; settings: adjusted for cytokine baseline differences
# Description: as §1, §2, §3
# CXCL9 = experiment: Biomarker analysis: serum CXCL9; settings: adjusted for cytokine baseline differences
# Description: as §1, §2, §3
# CCL27 = experiment: Biomarker analysis: serum CCL27; settings: adjusted for cytokine baseline differences
# Description: as §1, §2, §3
# [2] = Pharmacokinetics: serum kappamab by ELISA
# Text: The PK analysis was based on measurement of serum kappamab using an ELISA that was validated according to recommended guidelines. Briefly, immobilized human kappa Bence Jones protein (Bethyl, Sigma, USA) was used to capture kappamab. The captured kappamab was then detected using an AP-conjugated anti-human IgG (gamma chain specific; Sigma, Cat. No. H4522) followed by colour development with the AP substrate.
substance,measurement,setting,value
"kappamab: humanized form of K121 anti-KMA antibody; VH SEQ ID NO: 1, VL SEQ ID NO: 2",Change in serum concentration,G-CSF,dose-related decreases
same,Change in serum concentration,[1],dose-related decreases
same,Change in serum concentration,CXCL9,dose-related decreases
same,Change in serum concentration,CCL27,dose-related decreases
same,Cmax,"[2]; 1.0 mg/kg single IV dose, N = 3, geometric mean",20600 ng/mL
same,Manner of decline of serum kappamab after Cmax,"[2]; human, in vivo",biphasic manner
same,Serum concentration at Day 30 relative to Cmax,"[2]; human, in vivo",0.3-10 % of Cmax
same,"Volume of distribution (Vz), description","[2]; human, in vivo",low and similar across ascending doses
same,AUC0-tz,"[2]; human, in vivo, iv, 0.3 mg/kg",803 µg·h/mL
same,AUC0-tz normalized for dose (mg/kg),"[2]; human, in vivo, iv, 0.3 mg/kg",2678 µg·h/mL
same,AUC0-∞,"[2]; human, in vivo, iv, 0.3 mg/kg",901 µg·h/mL
same,AUC0-∞ normalized for dose (mg/kg),"[2]; human, in vivo, iv, 0.3 mg/kg",3003 µg·h/mL
same,CL (apparent total body clearance),"[2]; human, in vivo, iv, 0.3 mg/kg",7.99 mL/day/kg
same,Cmax,"[2]; human, in vivo, iv, 0.3 mg/kg",5440 ng/mL
same,Vz (apparent volume of distribution during terminal phase),"[2]; human, in vivo, iv, 0.3 mg/kg",0.114 L/kg
same,t1/2 (apparent elimination half-life),"[2]; human, in vivo, iv, 0.3 mg/kg",237 h
same,tmax,"[2]; human, in vivo, iv, 0.3 mg/kg",3.00 h
same,AUC0-tz,"[2]; human, in vivo, iv, 1 mg/kg",3006 µg·h/mL
same,AUC0-tz normalized for dose (mg/kg),"[2]; human, in vivo, iv, 1 mg/kg",3006 µg·h/mL
same,AUC0-∞ normalized for dose (mg/kg),"[2]; human, in vivo, iv, 1 mg/kg",3079 µg·h/mL
same,CL (apparent total body clearance),"[2]; human, in vivo, iv, 1 mg/kg",7.79 mL/day/kg
same,Vz (apparent volume of distribution during terminal phase),"[2]; human, in vivo, iv, 1 mg/kg",0.0946 L/kg
same,t1/2 (apparent elimination half-life),"[2]; human, in vivo, iv, 1 mg/kg",202 h
same,tmax,"[2]; human, in vivo, iv, 1 mg/kg",4.00 h
same,AUC0-tz,"[2]; human, in vivo, iv, 3 mg/kg",6864 µg·h/mL
same,AUC0-tz normalized for dose (mg/kg),"[2]; human, in vivo, iv, 3 mg/kg",2288 µg·h/mL
same,AUC0-∞,"[2]; human, in vivo, iv, 3 mg/kg",6927 µg·h/mL
same,AUC0-∞ normalized for dose (mg/kg),"[2]; human, in vivo, iv, 3 mg/kg",2309 µg·h/mL
same,CL (apparent total body clearance),"[2]; human, in vivo, iv, 3 mg/kg",10.4 mL/day/kg
same,Cmax,"[2]; human, in vivo, iv, 3 mg/kg",69900 ng/mL
same,Vz (apparent volume of distribution during terminal phase),"[2]; human, in vivo, iv, 3 mg/kg",0.120 L/kg
same,t1/2 (apparent elimination half-life),"[2]; human, in vivo, iv, 3 mg/kg",191 h
same,tmax,"[2]; human, in vivo, iv, 3 mg/kg",2.00 h
same,AUC0-tz,"[2]; human, in vivo, iv, 10 mg/kg",22994 µg·h/mL
same,AUC0-tz normalized for dose (mg/kg),"[2]; human, in vivo, iv, 10 mg/kg",2299 µg·h/mL
same,AUC0-∞,"[2]; human, in vivo, iv, 10 mg/kg",23227 µg·h/mL
same,AUC0-∞ normalized for dose (mg/kg),"[2]; human, in vivo, iv, 10 mg/kg",2323 µg·h/mL
same,CL (apparent total body clearance),"[2]; human, in vivo, iv, 10 mg/kg",10.3 mL/day/kg
same,Cmax,"[2]; human, in vivo, iv, 10 mg/kg",219000 ng/mL
same,Vz (apparent volume of distribution during terminal phase),"[2]; human, in vivo, iv, 10 mg/kg",0.0770 L/kg
same,t1/2 (apparent elimination half-life),"[2]; human, in vivo, iv, 10 mg/kg",124 h
same,tmax,"[2]; human, in vivo, iv, 10 mg/kg",4.00 h
same,Detectability of kappamab in serum,[2]; in vivo,could be detected at all dose levels (up to Day 30)
same,Start of the apparent terminal elimination phase,"[2]; in vivo, iv",~7 days
same,Time at which maximum serum concentrations were achieved,"[2]; in vivo, iv",2 to 4 h
